Common to all, as to format: binding
The target of one experiment is T1, recombinant human FTH1 (Homo sapiens, UniProt P02794).
T1 construct: made in house; host or cells: Rosetta E. coli (EMD Millipore, 70953-3)
As to the kind of experiment: GST pull-down assay of recombinant FTH1 using GST-NCOA4. The settings on record: recombinant FTH1 from E. coli, 0.2 μg and 1 μg, FIG. 10A. As to the method:
(§1) In the GST pull-down assay, lysates were incubated with 10 μl of a 50% (v/v) slurry of glutathione Sepharose 4B beads (GE Healthcare Lifesciences, 17-0756-01) for 30 minutes at 4° C. Beads were washed thoroughly with 150 mM NaCl, 20 mM Tris (pH 7.4), 2 mM dithiothreitol (DTT), 0.5% (w/v) Nonidet P-40, leaving 50-100 μg of GST-fusion protein bound to the beads. Beads were then mixed with 0.5-2 μg of apo-ferritin purified from equine spleen (Sigma F4503) or recombinant human FTH1 or FTL produced in Rosetta E. coli (EMD Millipore, 70953-3). The assay mix was incubated for 2 hours at 4° C., and beads were washed four times with 1 ml wash buffer. Proteins were eluted with SDS sample buffer and analyzed by 4-20% gradient SDS-PAGE and immunoblotting with anti-FTH1 antibody (as above) or anti-FLAG antibody (Sigma, F1804-200 UG). Pounceau stain was used to visualize GST-NCOA4 bands. (Pounceau, Sigma, P7170-1 L, protocol as per product manual).
(§2) To understand if there was subunit specificity for NCOA4 binding to ferritin, the NCOA4 C-terminus (aa 235-614) fusion protein was immobilized on glutathione Sepharose beads, as described in Example 1. Recombinant purified FTH1 or FTL produced in E. coli was added at concentrations of 0.2 μg and 1 μg, and binding was determined using the GST pull-down assay described in Example 1, above.

In another experiment the target is T2, recombinant human FTL (Homo sapiens, UniProt P02792).
T2 construct: made in house; host or cells: Rosetta E. coli (EMD Millipore, 70953-3)
T2 sequence (P02792 whole entry): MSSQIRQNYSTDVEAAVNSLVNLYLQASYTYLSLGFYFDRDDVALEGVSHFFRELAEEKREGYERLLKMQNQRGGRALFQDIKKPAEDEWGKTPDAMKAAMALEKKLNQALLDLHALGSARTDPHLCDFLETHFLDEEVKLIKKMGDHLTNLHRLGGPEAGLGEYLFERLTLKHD
As to the kind of experiment: GST pull-down assay of recombinant FTL using GST-NCOA4. The settings on record: recombinant FTL from E. coli, 0.2 μg and 1 μg; FIG. 10B; listed as GST-NCOA4 fragment. As to the method:
as §1, §2

The target of experiment [1] is T3, ferritin purified from horse spleen (mixture of FTH1 and FTL subunits) (Equus caballus, UniProt Q8MIP0).
T3 construct: ferritin purified from horse spleen; purchased Sigma A3641-100 mg; host or cells: horse spleen
T3 sequence (Q8MIP0 whole entry): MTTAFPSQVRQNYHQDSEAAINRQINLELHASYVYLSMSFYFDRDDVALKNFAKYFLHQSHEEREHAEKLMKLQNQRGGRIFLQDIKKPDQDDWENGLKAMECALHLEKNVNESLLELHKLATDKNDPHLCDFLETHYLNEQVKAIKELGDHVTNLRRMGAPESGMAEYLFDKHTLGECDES
T3 sequence (P02791 2-175 partner limits assumed): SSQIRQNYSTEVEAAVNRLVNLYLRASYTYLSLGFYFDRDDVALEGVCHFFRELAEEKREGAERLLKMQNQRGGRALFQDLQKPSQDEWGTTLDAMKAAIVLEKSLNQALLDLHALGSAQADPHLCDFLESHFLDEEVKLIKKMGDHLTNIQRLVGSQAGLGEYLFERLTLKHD
Nature of the experiment: anti-MYC immunoprecipitation of in vitro translated MYC-NCOA4 constructs incubated with ferritin. To be noted: anti-MYC IP, anti-FTH1 immunoblot, FIG. 5. The method, then: To probe the interaction between ferritin and NCOA4, initial binding assays using MYC-tagged NCOA4 full-length and truncation constructs produced using an in vitro translation (“IVT”) system were conducted. MYC-NCOA4 fragments were cloned using PCR into a modified T7 cell-free expression vector (pT7CFE1-NMyc, #88863, Thermo Scientific). 1-Step Human Coupled IVT Kit—DNA from Thermo Scientific (product #88881) was used to produce MYC-tagged NCOA4 constructs as described in the product manual. Apoferritin (Sigma, A3641-100 mg) was added in a pull-down assay using anti-c-Myc Agarose Affinity Gel antibody produced in rabbit (Sigma, A7470-1 ML). Affinity purification reactions were washed thoroughly with 150 mM NaCl, 20 mM Tris (pH 7.4), and 2 mM dithiothreitol. Proteins were eluted with SDS sample buffer and analyzed by 4-20% gradient SDS-PAGE and immunoblotting with anti-FTH1 antibody (Cell Signaling 3998; Western blot 1:1,000) or anti-MYC antibody (Santa Cruz Sc-40; western blot 1:1,000).
The full-length, N-terminal (amino acids (aa) 1-245 of SEQ ID NO: 4) and C-terminal (aa 235-614 of SEQ ID NO:4) MYC-NCOA4 were incubated with ferritin purified from horse spleen (Apoferritin (Sigma, A3641-100 mg), consisting of a mixture of FTH1 and FTL subunits) and anti-MYC immunoprecipitation was performed followed by immunoblotting as described above.

Experiment [2] deals with T4, apo-ferritin purified from equine spleen (Equus caballus, UniProt Q8MIP0).
T4 construct: apo-ferritin purified from equine spleen; purchased Sigma F4503; host or cells: equine spleen
T4 sequence (Q8MIP0 whole entry): as the sequence (Q8MIP0 whole entry) above
T4 sequence (P02791 2-175 partner limits assumed): as the sequence (P02791 2-175 partner limits assumed) above
Nature of the experiment: GST pull-down assay of ferritin using GST-NCOA4 fragments. The settings on record: anti-FTH1 immunoblot, FIGS. 7, 8, 11.
Source text: GST-tagged NCOA4 constructs were also made to probe the interactions of C-terminal portions of NCOA4 with ferritin. NCOA4-truncation constructs were produced using Gateway cloning (Invitrogen, Life Technologies, catalog #11789-013 and 11791-019) into a pDEST60 N-terminal GST fusion plasmid (GST-NCOA4) from EMD Millipore (Gateway Nova pET-60-DEST, product #71851-3) and transformed in E. coli BL21 (DE3) cells (New England Biosciences, C2527I).
NCOA4 truncation constructs were designed based on NCBI reference sequence: NP_001138735.1 (SEQ ID NO: 4). In particular, fragments of SEQ ID NO: 4 consisting of amino acids (aa) 1-245, aa 235-614, aa 235-560, aa 235-401, aa 383-560, aa 545-614, aa 383-522, aa 510-560, aa 383-436, aa 436-485, aa 475-522, aa 475-500, aa 480-500, aa 480-504, aa 485-509, aa 490-514, aa 495-522 were designed. Protein expression in the DE3 cells was induced with 1 mM isopropyl-beta-D-thiogalactopyranoside (IPTG) (Sigma, I6758-10 G) for 3 hours at 37° C. Cells were collected by centrifugation, re-suspended in 25 mM Tris-HCl (pH 7.4), 10% (w/v) sucrose and lysed with a single freeze-thaw cycle followed by sonication. After centrifugation, a GST pull-down assay was performed.
as §1
In general terms: Immunoblotting shows a protein as a band on a membrane.

T1 sequence (P02794 whole entry): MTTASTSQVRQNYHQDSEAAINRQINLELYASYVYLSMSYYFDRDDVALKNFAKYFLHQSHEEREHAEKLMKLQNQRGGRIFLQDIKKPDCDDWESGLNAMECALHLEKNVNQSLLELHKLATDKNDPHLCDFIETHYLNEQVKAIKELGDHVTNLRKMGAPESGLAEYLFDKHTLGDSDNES

B1: aa 235-614: NCOA4 C-terminal fragment, amino acids 235-614 of SEQ ID NO: 4 (protein)
chain: ENSQTSSRACNFFNNVGGNLKGLENWLLKSEKSSYQKCNSHSTTSSFSIEMEKVGDQELPDQDEMDLSDWLVTPQESHKLRKPENGSRETSEKFKLLFQSYNVNDWLVKTDSCTNCQGNQPKGVEIENLGNLKCLNDHLEAKKPLSTPSMVTEDWLVQNHQDPCKVEEVCRANEPCTSFAECVCDENCEKEALYKWLLKKEGKDKNGMPVEPKPEPEKHKDSLNMWLCPRKEVIEQTKAPKAMTPSRIADSFQVIKNSPLSEWLIRPPYKEGSPKEVPGTEDRAGKQKFKSPMNTSWCSFNTADWVLPGKKMGNLSQLSSGEDKWLLRKKAQEVLLNSPLQEEHNFPPDHYGLPAVCDLFACMQLKVDKEKWLYRTPLQM
modifications: Homo sapien
On to B1, for which the “binding of GST-NCOA4 to FTH1” value is “binds to FTH1” with recombinant human FTH1 (listed as GST-NCOA4 fragment) and “interacted with the NCOA4 C-terminus” with recombinant human FTH1 (listed as NCOA4 C-terminus). Besides, the “binding of GST-NCOA4 to FTL” value in the experiment with recombinant human FTL is “binds minimally to FTL”. Also, the “association of MYC-NCOA4 construct with ferritin” value is “associated with ferritin” in experiment [1] and “bind to ferritin” in experiment [1] (listed as C-terminal NCOA4). Also, in experiment [2], the “binding of GST-NCOA4 fragment to ferritin” value was “bound to ferritin”.

These data come from US10350264B2, “Compositions and methods for modulating NCOA4-mediated autophagic targeting of ferritin” (Dana-Farber Cancer Institute, Inc., priority 2014, dated 2019).
